Values belong to the binder of their own block, whether it stands above or below them.
Tests used:
[1] = molecular target: T1, human TSH receptor (full length), coated on ELISA plate wells (human, UniProt P16473 22-764); experiment: ELISA, inhibition of M22 Fab-peroxidase (competitor) binding to TSHR coated wells; 0.1 µg/mL in HBD serum; mean ± SD
T1 construct: TSHR coated ELISA plate wells of the TRAb ELISA; also called thyroid stimulating hormone receptor

[2] = molecular target: T1, human TSH receptor (full length), …; experiment: ELISA, inhibition of M22 Fab-peroxidase (competitor) binding to TSHR coated wells; 0.03 µg/mL in assay buffer; mean ± SD
[3] = molecular target: T1, human TSH receptor (full length), …; experiment: ELISA, inhibition of M22 Fab-peroxidase (competitor) binding to TSHR coated wells; 0.03 µg/mL in HBD serum; mean ± SD
[4] = molecular target: T1, human TSH receptor (full length), …; experiment: ELISA, inhibition of M22 Fab-peroxidase (competitor) binding to TSHR coated wells; 0.01 µg/mL in HBD serum; mean ± SD
[5] = molecular target: T1, human TSH receptor (full length), …; experiment: ELISA, inhibition of M22 Fab-peroxidase (competitor) binding to TSHR coated wells; 0.01 µg/mL in assay buffer; mean ± SD
[6] = molecular target: T1, human TSH receptor (full length), …; experiment: ELISA, inhibition of M22 Fab-peroxidase (competitor) binding to TSHR coated wells; 0.1 µg/mL in assay buffer; mean ± SD
[7] = molecular target: T1, human TSH receptor (full length), …; experiment: ELISA, inhibition of M22 Fab-peroxidase (competitor) binding to TSHR coated wells; 1 µg/mL in HBD serum; mean ± SD
[8] = molecular target: T1, human TSH receptor (full length), …; experiment: ELISA, inhibition of M22 Fab-peroxidase (competitor) binding to TSHR coated wells; 1 µg/mL in assay buffer; mean ± SD
[9] = molecular target: T2, thyroid stimulating hormone receptor (TSHR), full length human (human, UniProt P16473 22-764); experiment: 125I-K1-18 Fab competition, TSHR coated tubes; 0.1 µg/mL in assay buffer
T2 construct: TSHR coated on plastic tubes; also called TSH receptor
Method: (§1) Binding inhibition assays were carried out using TSHR coated tubes as described in WO2004/050708A2. […] After aspiration, the tubes were washed and 100 μL of ¹²⁵I-labelled protein (5×10⁴ cpm) added and incubated for 1 hour at room temperature with shaking. The tubes were then aspirated, washed and counted in a gamma counter. Inhibition of labelled protein binding was calculated as 100×[1−(cpm bound in the presence of test material/cpm bound in the presence of control material)].

[10] = molecular target: T2, thyroid stimulating hormone receptor …; experiment: 125I-K1-18 Fab competition, TSHR coated tubes; 30 µg/mL in assay buffer
Method: as §1

[11] = molecular target: T2, thyroid stimulating hormone receptor …; experiment: 125I-K1-18 Fab competition, TSHR coated tubes; 30 µg/mL in HBD
Method: as §1

[12] = molecular target: T2, thyroid stimulating hormone receptor …; experiment: 125I-K1-18 Fab competition, TSHR coated tubes; 10 µg/mL in assay buffer
Method: as §1

[13] = molecular target: T2, thyroid stimulating hormone receptor …; experiment: 125I-K1-18 Fab competition, TSHR coated tubes; 100 µg/mL in assay buffer
Method: as §1

[14] = molecular target: T2, thyroid stimulating hormone receptor …; experiment: 125I-K1-18 Fab competition, TSHR coated tubes; 3 µg/mL in assay buffer
Method: as §1

[15] = molecular target: T2, thyroid stimulating hormone receptor …; experiment: 125I-K1-18 Fab competition, TSHR coated tubes; 100 µg/mL in HBD
Method: as §1

[16] = molecular target: T2, thyroid stimulating hormone receptor …; experiment: 125I-K1-18 Fab competition, TSHR coated tubes; 0.1 µg/mL in HBD
Method: as §1

[17] = molecular target: T2, thyroid stimulating hormone receptor …; experiment: 125I-K1-18 Fab competition, TSHR coated tubes; 1 µg/mL in HBD
Method: as §1

[18] = molecular target: T2, thyroid stimulating hormone receptor …; experiment: 125I-K1-18 Fab competition, TSHR coated tubes; 1 µg/mL in assay buffer
Method: as §1

[19] = molecular target: T2, thyroid stimulating hormone receptor …; experiment: 125I-K1-18 Fab competition, TSHR coated tubes; 3 µg/mL in HBD
Method: as §1

[20] = molecular target: T2, thyroid stimulating hormone receptor …; experiment: 125I-K1-18 Fab competition, TSHR coated tubes; 10 µg/mL in HBD
Method: as §1

[21] = molecular target: T3, TSHR260-alkaline phosphatase (TSHR260-AP) (human, UniProt P05187 23-511); experiment: TSHR260-AP bridge ELISA, full length TSHR on wells; 250 µg/mL, diluted in assay buffer
T3 construct: Fusion of human TSHR amino acids 22-260 (construct codes 1-260, 1-21 being the leader) with secreted alkaline phosphatase, expressed in insect cells; In the ELISA the antibody bridges full length detergent-solubilised TSHR coated on the wells and TSHR260-AP in the liquid phase
Method: (§2) An ELISA was established based on the ability of divalent TSHR antibodies to bind with one antigen binding site to TSHR coated onto an ELISA plate well and with the other antigen binding site to TSHR260-AP in a liquid phase i.e. forming a bridge. TSHR in the form of full length detergent-solubilised receptor expressed in CHO cells was coated onto ELISA plate wells via a C-terminal antibody as described previously (Bolton J et al 1999 supra). In the assay 75 μL of start buffer (as described for TRAb ELISA; Bolton J, et al 1999 supra) and 75 μL of test sample (patient sera or monoclonal antibodies) were added to the ELISA plate wells coated with the full length detergent solubilised TSHR and incubated for 2 hours at room temperature with shaking (500 rpm). Then the contents of the wells were removed, the wells washed 3 times with wash buffer (50 mmol/L NaCl, 20 mmol/L Tris pH 7.8, 1% Triton X-100) followed by addition of […] of TSHR260-AP (diluted in wash buffer containing 0.2 g/L MgCl₂-6H₂O and 2 g/L BSA). After incubation for 1 hour at room temperature with shaking (500 rpm) the wells were emptied, washed (3 times) and 100 μL of p-nitrophenyl phosphate (pNpp) substrate (Europa Bioproducts Ltd, Ely, Cambridge UK) added and the plate incubated in the dark for 45 minutes. Thereafter 100 μL of stop solution (1 mol/L NaOH) was added and the absorbance read at 405 nm in an ELISA plate reader. […] In some experiments solubilised preparations of recombinant TSHR containing mutation R255D expressed in CHO cells were used to coat the ELISA plate wells.
(§3) TSHR260-AP is a fusion protein consisting of a fragment of human TSHR (amino acids 22-260) e with alkaline phosphatase. […] Mean absorbance = mean of duplicate determinations.

[22] = molecular target: T3, TSHR260-alkaline phosphatase …; experiment: TSHR260-AP bridge ELISA, full length TSHR on wells; 0.005 µg/mL, diluted in assay buffer
Method: as §2, §3

[23] = molecular target: T3, TSHR260-alkaline phosphatase …; experiment: TSHR260-AP bridge ELISA, full length TSHR on wells; 250 µg/mL, diluted in HBD
Method: as §2, §3

[24] = molecular target: T3, TSHR260-alkaline phosphatase …; experiment: TSHR260-AP bridge ELISA, full length TSHR on wells; 10 µg/mL, diluted in HBD
Method: as §2, §3

[25] = molecular target: T3, TSHR260-alkaline phosphatase …; experiment: TSHR260-AP bridge ELISA, full length TSHR on wells; 0.1 µg/mL, diluted in HBD
Method: as §2, §3

[26] = molecular target: T3, TSHR260-alkaline phosphatase …; experiment: TSHR260-AP bridge ELISA, full length TSHR on wells; 0.005 µg/mL, diluted in HBD
Method: as §2, §3

[27] = molecular target: T3, TSHR260-alkaline phosphatase …; experiment: TSHR260-AP bridge ELISA, full length TSHR on wells; 0.1 µg/mL, diluted in assay buffer
Method: as §2, §3

[28] = molecular target: T3, TSHR260-alkaline phosphatase …; experiment: TSHR260-AP bridge ELISA, full length TSHR on wells; 10 µg/mL, diluted in assay buffer
Method: as §2, §3

Inhibition of binding (%) [1]: 56.3% | Inhibition of binding (%) [2]: 35.7% | Inhibition of binding (%) [3]: 13.6% | Inhibition of binding (%) [4]: -4% | Inhibition of binding (%) [5]: 8.9% | Inhibition of binding (%) [6]: 71.9% | Inhibition of binding (%) [7]: 94.6% | Inhibition of binding (%) [8]: 96.3%
B1: K1-18 IgG (antibody, V domains shown)
VH: EVQLVQSGAEVKKPGESLKISCKGSGYSFTNYWIGWVRQMPGKGLEWMGIIYPYDSDTRYSPSFEGQVTISADKSIRTAYLHWSSLKASDTAMYYCVRPRDGSYPYDAFDIWGQGTMVTVSS
VL: EIVLTQSPGTLSLSPGERATLSCRASQSVSNNYLAWYQQKPGQAPRLLIYGASSRATGIPDRFSGSGSGTDFTLTISRLEPEDFAVYYCQHCGSSLRAFGQGTKVEIKR
notes: Human IgG1 with kappa light chains, purified from hetero-hybridoma culture supernatant; also called human monoclonal autoantibody to the TSHR with TSH agonist (stimulating) activity

Inhibition of binding (%) [9]: 78.5% | Inhibition of binding (%) [10]: 94.5% | Inhibition of binding (%) [11]: 95.7% | Inhibition of binding (%) [12]: 94.8% | Inhibition of binding (%) [13]: 94.8% | Inhibition of binding (%) [14]: 93.7% | Inhibition of binding (%) [15]: 96% | Inhibition of binding (%) [16]: 57% | Inhibition of binding (%) [17]: 91.9% | Inhibition of binding (%) [18]: 93.3% | Inhibition of binding (%) [19]: 94% | Inhibition of binding (%) [20]: 94.5%
B2: K1-18 IgG (antibody, V domains shown)
VH: B1 VH
VL: B1 VL
notes: Human IgG1 kappa purified from hetero-hybridoma supernatant; also called human monoclonal autoantibody K1-18

Inhibition of binding (%) [1]: 69.7% | Inhibition of binding (%) [2]: 71.8% | Inhibition of binding (%) [3]: 34.5% | Inhibition of binding (%) [4]: 9.2% | Inhibition of binding (%) [5]: 28% | Inhibition of binding (%) [6]: 93% | Inhibition of binding (%) [7]: 96.4% | Inhibition of binding (%) [8]: 98.1%
B3: K1-70 IgG (antibody, V domains shown)
VH: EVQLVQSGAEVKKPGQSLKISCKASGYSLTDNWIGWVRQKPGKGLEWMGIIYPGDSDTRYSPSFQGQVTISADKSINTAYLQWSSLKASDTAIYYCVGLDWNYNPLRYWGPGTLVTVSS
VL: QSVLTQPPSVSAAPGQKVTISCSGSSSDIGSNYVSWYQQFPGTAPKLLIYDNNKRPSAIPDRFSGSKSGTSATLGITGLQTGDEADYYCGTWDSRLGIAVFGGGTQLTVLG
notes: Human IgG1 with lambda light chains, purified from hetero-hybridoma culture supernatant

Mean absorbance at 405 nm [21]: 0.056 absorbance at 405 nm | Mean absorbance at 405 nm [22]: -0.004 absorbance at 405 nm | Mean absorbance at 405 nm [23]: 0.02 absorbance at 405 nm | Mean absorbance at 405 nm [24]: 0.018 absorbance at 405 nm | Mean absorbance at 405 nm [25]: -0.01 absorbance at 405 nm | Mean absorbance at 405 nm [26]: -0.01 absorbance at 405 nm | Mean absorbance at 405 nm [27]: 0.007 absorbance at 405 nm | Mean absorbance at 405 nm [28]: 0.033 absorbance at 405 nm
B4: K1-70 Fab (Fab, V domains shown)
VH: B3 VH
VL: B3 VL
notes: residue limits as in claims 56 and 57

Mean absorbance at 405 nm [21]: 1.13 absorbance at 405 nm | Mean absorbance at 405 nm [22]: 0.085 absorbance at 405 nm | Mean absorbance at 405 nm [23]: 0.817 absorbance at 405 nm | Mean absorbance at 405 nm [24]: 0.738 absorbance at 405 nm | Mean absorbance at 405 nm [25]: 0.44 absorbance at 405 nm | Mean absorbance at 405 nm [26]: 0.045 absorbance at 405 nm | Mean absorbance at 405 nm [27]: 0.713 absorbance at 405 nm | Mean absorbance at 405 nm [28]: 0.885 absorbance at 405 nm
B5: K1-70 IgG (antibody, V domains shown)
VH: B3 VH
VL: B3 VL
notes: Human IgG1 lambda purified from hetero-hybridoma supernatant

Inhibition of binding (%) [1]: 86% | Inhibition of binding (%) [2]: 82% | Inhibition of binding (%) [3]: 58.8% | Inhibition of binding (%) [4]: 27.9% | Inhibition of binding (%) [5]: 57.5% | Inhibition of binding (%) [6]: 94.6% | Inhibition of binding (%) [7]: 96.1% | Inhibition of binding (%) [8]: 97.2%
B6: K1-70 Fab (Fab, V domains shown)
VH: B3 VH
VL: B3 VL
notes: also called Fab of K1-70

From patent US20110300138A1 (published 2011)
